Data reported in the Immune Epitope Database (IEDB).

Key:
HLA-A*32:01 = experiment: IEDB peptide-MHC binding, purified MHC/competitive/radioactivity; filed as Kd, often an IC50 or EC50 that approximates it; ≥ and ≤ were set here for values at or beyond the usual limits of such assays
HLA-A*30:02 = experiment: as above
HLA-B*27:05 = experiment: IEDB peptide-MHC binding, purified MHC/direct/fluorescence; filed as Kd, often an IC50 or EC50 that approximates it; ≥ and ≤ were set here for values at or beyond the usual limits of such assays; conditions: source organism: Mammarenavirus juninense
HLA-A*01:01 = experiment: IEDB peptide-MHC binding, purified MHC/competitive/radioactivity; filed as Kd, often an IC50 or EC50 that approximates it; ≥ and ≤ were set here for values at or beyond the usual limits of such assays
HLA-B*08:01 = experiment: as above
HLA-A*02:01 = experiment: IEDB peptide-MHC binding, purified MHC/competitive/fluorescence; filed as Kd, often an IC50 or EC50 that approximates it; ≥ and ≤ were set here for values at or beyond the usual limits of such assays; conditions: source organism: Yersinia pestis Antiqua
HLA-A*26:01 [1] = experiment: as above
HLA-A*30:01 = experiment: IEDB peptide-MHC binding, purified MHC/competitive/radioactivity; filed as Kd, often an IC50 or EC50 that approximates it; ≥ and ≤ were set here for values at or beyond the usual limits of such assays; conditions: source organism: Dengue virus 4 Philippines/H241/1956
HLA-A*24:02 = experiment: as above
HLA-A*26:01 [2] = experiment: as above
HLA-B*44:02 = experiment: as above
HLA-B*44:03 = experiment: as above
HLA-B*58:01 = experiment: IEDB peptide-MHC binding, purified MHC/direct/fluorescence; filed as Kd, often an IC50 or EC50 that approximates it; ≥ and ≤ were set here for values at or beyond the usual limits of such assays; conditions: source organism: Homo sapiens
HLA-B*07:02 = experiment: as above
HLA-A*29:02 = experiment: IEDB peptide-MHC binding, purified MHC/competitive/radioactivity; filed as Kd, often an IC50 or EC50 that approximates it; ≥ and ≤ were set here for values at or beyond the usual limits of such assays
HLA-A*23:01 = experiment: as above
HLA-A*69:01 = experiment: IEDB peptide-MHC binding, purified MHC/direct/fluorescence; filed as Kd, often an IC50 or EC50 that approximates it; ≥ and ≤ were set here for values at or beyond the usual limits of such assays; conditions: source organism: Orthohantavirus hantanense
HLA-A*33:01 = experiment: IEDB peptide-MHC binding, purified MHC/competitive/radioactivity; filed as Kd, often an IC50 or EC50 that approximates it; ≥ and ≤ were set here for values at or beyond the usual limits of such assays; conditions: source organism: Triticum aestivum
HLA-A*11:01 = experiment: as above; conditions: source organism: Triticum aestivum
HLA-A*03:01 = experiment: as above; conditions: source organism: Triticum aestivum
HLA-A*68:01 = experiment: as above; conditions: source organism: Triticum aestivum
HLA-A*31:01 = experiment: as above; conditions: source organism: Triticum aestivum
[3] = source organism: Dengue virus 1 Brazil/97-11/1997
[4] = source organism: Dengue virus 2 Peru/IQT2913/1996
[5] = source organism: Dengue virus 3 Martinique/1243/1999
[6] = source organism: Vaccinia virus WR
[7] = source organism: Dengue virus 2 Jamaica/1409/1983
[8] = source organism: Dengue virus 4 Philippines/H241/1956
[9] = source organism: Mammarenavirus lassaense
[10] = source organism: Mammarenavirus brazilense
[11] = source organism: Dengue virus 1 Singapore/S275/1990
[12] = source organism: Mammarenavirus guanaritoense
[13] = source organism: Triticum aestivum

Question: For TNEVHTWTEQ, which Kd (HLA-A*32:01; [3]) is on record?
Answer: Its Kd is 5360 nM.

Question: With DKKGKVVGLY as the sequence, how does the Kd (HLA-A*30:02; [4]) read?
Answer: Its Kd is 2.56 nM.

Question: RRDLKLVDV was tested. Which Kd (HLA-B*27:05) did it give?
Answer: Its Kd is ≥ 20000 nM.

Question: VTDKEKPVNI was tested. Which Kd (HLA-A*01:01; [3]) did it give?
Answer: Its Kd is 15500 nM.

Question: Which Kd (HLA-B*08:01; [5]) does the source give for LRKLTSRENL here?
Answer: The Kd was 4950 nM.

Question: With SQHQHLAIM as the sequence, how does the Kd (HLA-B*08:01; [6]) read?
Answer: The Kd was 142 nM.

Question: How did the Kd (HLA-A*02:01) turn out when LIIDEIGYL was run?
Answer: Its Kd is 4.6 nM.

Question: What about the Kd (HLA-A*26:01 [1]; source organism: Yersinia pestis Antiqua) of the same sequence?
Answer: The Kd was 4.4 nM.

Question: For RLINNRVLF, which Kd (HLA-A*32:01; [6]) is on record?
Answer: The Kd was 5.67 nM.

Question: With ETNYYIHPI as the sequence, how does the Kd (HLA-A*32:01; [6]) read?
Answer: Its Kd is 368 nM.

Question: For LHQVFGAIY, which Kd (HLA-A*30:02; [7]) is on record?
Answer: The Kd was 42.7 nM.

Question: How did the Kd (HLA-A*30:02; [8]) turn out when TTRHRKPTY was run?
Answer: The Kd was 658 nM.

Question: And the Kd (HLA-A*30:01)?
Answer: Its Kd is 1180 nM.

Question: KYQLAVTIM was tested. Which Kd (HLA-A*24:02; [7]) did it give?
Answer: The Kd was 29.2 nM.

Question: Which Kd (HLA-A*01:01; [9]) does the source give for HYLCLNCLS here?
Answer: The Kd was 3730 nM.

Question: And the Kd (HLA-A*30:02; [9])?
Answer: Its Kd is 14200 nM.

Question: What about the Kd (HLA-A*26:01 [2]; [9]) of the same sequence?
Answer: Its Kd is ≥ 77900 nM.

Question: Which results are given for AEMEEALKG?
Answer: Kd (HLA-B*44:02; [5]): 29.7 nM; Kd (HLA-B*44:03; [5]): 5.34 nM

Question: For NRRRRTAGM, which Kd (HLA-B*08:01; [4]) is on record?
Answer: Its Kd is 98.9 nM.

Question: What does the source list for DPSGAYFAW?
Answer: Kd (HLA-B*58:01): 1570 nM; Kd (HLA-B*07:02; source organism: Homo sapiens): 17600 nM

Question: How did the Kd (HLA-A*24:02; [10]) turn out when LNYVIHKLF was run?
Answer: Its Kd is 10500 nM.

Question: What about the Kd (HLA-A*29:02; [10]) of the same sequence?
Answer: The Kd was 12800 nM.

Question: What about the Kd (HLA-A*23:01; [10]) of the same sequence?
Answer: Its Kd is 973 nM.

Question: Which results are given for PSVEVKLPDY?
Answer: Kd (HLA-A*01:01; [8]): 7510 nM; Kd (HLA-A*30:02; [8]): 162 nM

Question: For AGEKALKLSW, which Kd (HLA-B*44:02; [3]) is on record?
Answer: Its Kd is 576 nM.

Question: How did the Kd (HLA-A*24:02; [11]) turn out when LWATLLSLTF was run?
Answer: The Kd was 193 nM.

Question: What about the Kd (HLA-A*23:01; [11]) of the same sequence?
Answer: The Kd was 25.3 nM.

Question: Which Kd (HLA-A*30:02; [7]) does the source give for GYSQIGAGVY here?
Answer: Its Kd is 127 nM.

Question: Which Kd (HLA-A*23:01; [7]) does the source give for WHLGKLEMDF here?
Answer: Its Kd is 1880 nM.

Question: Which Kd (HLA-A*32:01; [5]) does the source give for GPITTLWEGS here?
Answer: The Kd was 2870 nM.

Question: For KRRLRTLIL, which Kd (HLA-B*08:01; [5]) is on record?
Answer: The Kd was 1000 nM.

Question: Which Kd (HLA-A*23:01; [8]) does the source give for RFLEFEALGF here?
Answer: The Kd was 1.44 nM.

Question: Which Kd (HLA-A*24:02; [7]) does the source give for RWFVERNMVT here?
Answer: The Kd was 855 nM.

Question: KTKNNDWDY was tested. Which Kd (HLA-A*01:01; [3]) did it give?
Answer: The Kd was 595 nM.

Question: And the Kd (HLA-A*30:02; [3])?
Answer: The Kd was 15 nM.

Question: Which results are given for EFFDCFKYIL?
Answer: Kd (HLA-A*24:02; [12]): 8700 nM; Kd (HLA-A*29:02; [12]): 645 nM; Kd (HLA-A*23:01; [12]): 1690 nM

Question: Which results are given for NAHEGQLVI?
Answer: Kd (HLA-A*69:01): 3400 nM; Kd (HLA-B*07:02; source organism: Orthohantavirus hantanense): ≥ 25300 nM

Question: With LTIGVNYDI as the sequence, how does the Kd (HLA-A*32:01; source organism: Vaccinia virus Copenhagen) read?
Answer: Its Kd is 525 nM.

Question: TYQNKVVKVL was tested. Which Kd (HLA-B*08:01; [8]) did it give?
Answer: Its Kd is 155 nM.

Question: How did the Kd (HLA-A*24:02; [8]) turn out when AWRTIMAVLF was run?
Answer: Its Kd is 22.1 nM.

Question: And the Kd (HLA-A*23:01; [8])?
Answer: Its Kd is 51.5 nM.

Question: With VLLSKRPSL as the sequence, how does the Kd (HLA-B*08:01; [6]) read?
Answer: Its Kd is 78 nM.

Question: With RSFEIINVL as the sequence, how does the Kd (HLA-A*32:01; [6]) read?
Answer: Its Kd is 2.9 nM.

Question: How did the Kd (HLA-B*08:01; [5]) turn out when EKWKKKLNQL was run?
Answer: Its Kd is 596 nM.

Question: Which Kd (HLA-B*08:01; [6]) does the source give for EPGSSFKFL here?
Answer: Its Kd is 1880 nM.

Question: With AEPDDVDCW as the sequence, how does the Kd (HLA-B*44:02; [3]) read?
Answer: Its Kd is 37.4 nM.

Question: And the Kd (HLA-B*44:03; [3])?
Answer: The Kd was 236 nM.

Question: For DGLSSVGGY, which Kd (HLA-A*26:01 [1]; source organism: Azotobacter vinelandii DJ) is on record?
Answer: The Kd was ≥ 20000 nM.

Question: For RLANNKVTI, which Kd (HLA-A*32:01; [6]) is on record?
Answer: The Kd was 1.54 nM.

Question: LRAQNALDNL was tested. Which Kd (HLA-B*08:01; [3]) did it give?
Answer: Its Kd is 1360 nM.

Question: With CIAIGIITLY as the sequence, how does the Kd (HLA-A*01:01; [5]) read?
Answer: The Kd was 7450 nM.

Question: And the Kd (HLA-A*30:02; [5])?
Answer: The Kd was ≥ 69700 nM.

Question: And the Kd (HLA-A*26:01 [2]; [5])?
Answer: Its Kd is 121 nM.

Question: With EALKGLPIRY as the sequence, how does the Kd (HLA-A*26:01 [2]; [5]) read?
Answer: The Kd was 10100 nM.

Question: HAQRVESWIL was tested. Which Kd (HLA-B*08:01; [8]) did it give?
Answer: Its Kd is 355 nM.

Question: With SSQVLQQSTY as the sequence, how does the Kd (HLA-A*33:01) read?
Answer: Its Kd is 19000 nM.

Question: And the Kd (HLA-A*24:02; [13])?
Answer: The Kd was ≥ 42300 nM.

Question: And the Kd (HLA-A*29:02; [13])?
Answer: The Kd was 2990 nM.

Question: And the Kd (HLA-A*11:01)?
Answer: The Kd was 2540 nM.

Question: And the Kd (HLA-A*30:02; [13])?
Answer: The Kd was 588 nM.

Question: And the Kd (HLA-A*23:01; [13])?
Answer: The Kd was ≥ 41500 nM.

Question: And the Kd (HLA-A*26:01 [2]; [13])?
Answer: Its Kd is 4630 nM.

Question: And the Kd (HLA-A*03:01)?
Answer: The Kd was 13500 nM.

Question: And the Kd (HLA-A*68:01)?
Answer: Its Kd is 9510 nM.

Question: What about the Kd (HLA-A*31:01) of the same sequence?
Answer: The Kd was 9000 nM.

Question: SEMAEALKG was tested. Which Kd (HLA-B*44:02; [3]) did it give?
Answer: Its Kd is 14.5 nM.

Question: With NWASVKKDLI as the sequence, how does the Kd (HLA-A*23:01; [5]) read?
Answer: Its Kd is 287 nM.

Question: Which Kd (HLA-A*01:01; [5]) does the source give for LTSRENLLL here?
Answer: Its Kd is 418 nM.
